Measured values reported in US20240270821A1, “GIP/GLP1/GCG TRI-RECEPTOR AGONISTS AND USES THEREOF” (priority 2023, published 2024).
Substitutions are numbered along the chain they refer to. Starred links: 1 amine or outer side, 2 acyl side, 3 side chain; linkers in the order of their positions; H or OH if unused. Non-standard residues stand in square brackets, D forms with d. Groups on a side chain read outwards from the residue. No end group written: not given here. *: point of attachment. C20 diacid = O=C(O)CCCCCCCCCCCCCCCCCCC(=O)*; Phe(4-CN) = N#Cc1ccc(C[C@H](N)C(=O)O)cc1; αMePhe(2-F) = C[C@](N)(Cc1ccccc1F)C(=O)O; γGlu = O=C(O)[C@H](CCC(=O)[*:2])N[*:1]; αMeL = CC(C)C[C@](C)(N)C(=O)O; AEEA = NCCOCCOCC(=O)O; Aib = CC(C)(N)C(=O)O

T1: human GIP receptor (human) (UniProt P48546)
T1 sequence (looked up): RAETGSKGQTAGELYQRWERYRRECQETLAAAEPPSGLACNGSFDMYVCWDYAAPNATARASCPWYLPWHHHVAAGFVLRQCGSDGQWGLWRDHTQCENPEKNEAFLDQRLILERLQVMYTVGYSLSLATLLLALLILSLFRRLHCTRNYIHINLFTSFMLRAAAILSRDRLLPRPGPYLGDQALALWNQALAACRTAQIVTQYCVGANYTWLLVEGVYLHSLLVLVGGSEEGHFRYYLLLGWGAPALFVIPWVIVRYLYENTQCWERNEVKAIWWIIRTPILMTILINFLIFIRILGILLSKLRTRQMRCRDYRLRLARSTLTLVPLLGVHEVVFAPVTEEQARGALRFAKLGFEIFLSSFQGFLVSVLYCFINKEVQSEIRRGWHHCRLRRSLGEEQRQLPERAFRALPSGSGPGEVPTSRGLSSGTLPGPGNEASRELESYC

B1: Example 356 (peptide)
chain: Y[Aib]QGT[αMePhe(2-F)]TSDYSKLLDKIAQKAFIEYLIEGGPSSGAPPPSGE-NH2
modifications: not fully specified (residue 20)
B2: Example 347 (peptide)
chain: YXQGTXTSDXSILLDKQAQKAFIEYLLEGGPSSGEPPPSEG
modifications: not fully specified; synthetic construct; SITE 2: note = 2-Aminoisobutyric Acid; SITE 6: note = alpha-methyl-2-fluoro-L-phenylalanine; SITE 10: note = 3-(4-Pyridyl)-L-alanine; SITE 20: note = Lysine is chemically modified through conjugation of the epsilon-amino group of the Lysine side chain with (2-[2-(2-Amino-ethoxy))
B3: Example 363 (peptide)
chain: Y[Aib]QGT[αMePhe(2-F)]TSD[Phe(4-CN)]SKLLDKIAQK([AEEA-γGlu-C20 diacid])AFIEYLIEGGPSSGAPPPSGS-NH2
B4: Example 346 (peptide)
chain: Y[Aib]QGT[αMePhe(2-F)]TSDFSILLDKQAQKAFIEYLLEGGPSSGEPPPSEG-NH2
modifications: not fully specified (residue 20)
B5: Example 349 (peptide)
chain: Y[Aib]QGTFTSDYSI[αMeL]LDKQAAKQFIEYLIA[Aib]GPSSGEPPPSEG-NH2
modifications: not fully specified (residue 20)
B6: Example 355 (peptide)
chain: Y[Aib]QGT[αMePhe(2-F)]TSDYSKILDKIAQKAFIEYLIEGGPSSGAPPPSEG-NH2
modifications: not fully specified (residue 20)
B7: Example 350 (peptide)
chain: Y[Aib]QGT[αMePhe(2-F)]TSD[Phe(4-CN)]SILLDKQAQKAFIEYLLEGGPSSGEPPPSAG-NH2
modifications: not fully specified (residue 20)
B8: Example 353 (peptide)
chain: Y[Aib]QGT[αMePhe(2-F)]TSD[Phe(4-CN)]SILLDKQAQKAFIQYLLEGGPSSGEPPPSEG-NH2
modifications: not fully specified (residue 20)
B9: Example 351 (peptide)
chain: Y[Aib]QGT[αMePhe(2-F)]TSDYSILLDAQAAKEFIEYLIEGGPSSGEPPPSEG-NH2
modifications: not fully specified (residue 20)
B10: Example 352 (peptide)
chain: Y[Aib]QGT[αMePhe(2-F)]TSD[Phe(4-CN)]SILLDKQAQKAFIEYLLEGGPSSGEPPPSEG-NH2
modifications: not fully specified (residue 20)
B11: Example 357 (peptide)
chain: Y[Aib]QGT[αMePhe(2-F)]TSDYSKLLDKIAQKAFIEYLIEGGPSSGAPPPEGE-NH2
modifications: not fully specified (residue 20)
B12: Example 354 (peptide)
chain: Y[Aib]QGT[αMePhe(2-F)]TSDYSKILDKIAQKAFIQYLIEGGPSSGEPPPSEG-NH2
modifications: not fully specified (residue 20)
B13: Example 368 (peptide)
chain: YXQGTXTSDYXIXLDXKAQXXFIEXLLEGGPSSGEPPPS
modifications: synthetic construct; SITE 2: note = 2-Aminoisobutyric Acid; SITE 6: note = alpha-methyl-2-fluoro-L-phenylalanine; SITE 11: note = alpha-methyl-L-serine; SITE 13: note = alpha-methyl-leucine; SITE 16: note = L-ornithine; SITE 17: note = Lysine is chemically modified through conjugation of the epsilon
B14: Example 377 (peptide)
chain: B13 chain with Y10X, S39E
modifications: synthetic construct; SITE 2: note = 2-Aminoisobutyric Acid; SITE 6: note = alpha-methyl-2-fluoro-L-phenylalanine; SITE 10: note = 3-(4-Pyridyl)-L-alanine; SITE 11: note = alpha-methyl-L-serine; SITE 13: note = alpha-methyl-leucine; SITE 16: note = L-ornithine; SITE 17: note = Lysine is chemically mo
B15: Example 373 (peptide)
chain: B13 chain with Y10X, X11S, G34X, S39E
modifications: synthetic construct; SITE 2: note = 2-Aminoisobutyric Acid; SITE 6: note = alpha-methyl-2-fluoro-L-phenylalanine; SITE 10: note = 3-(4-Pyridyl)-L-alanine; SITE 13: note = alpha-methyl-leucine; SITE 16: note = L-ornithine; SITE 17: note = Lysine is chemically modified through conjugation of the epsil
B16: Example 375 (peptide)
chain: B13 chain with Y10X, L27I
modifications: synthetic construct; SITE 2: note = 2-Aminoisobutyric Acid; SITE 6: note = alpha-methyl-2-fluoro-L-phenylalanine; SITE 10: note = 3-(4-Pyridyl)-L-alanine; SITE 11: note = alpha-methyl-L-serine; SITE 13: note = alpha-methyl-leucine; SITE 16: note = L-ornithine; SITE 17: note = Lysine is chemically mo
B17: Example 378 (peptide)
chain: B13 chain with Y10X, L27I, S39E
modifications: synthetic construct; SITE 2: note = 2-Aminoisobutyric Acid; SITE 6: note = alpha-methyl-2-fluoro-L-phenylalanine; SITE 10: note = 3-(4-Pyridyl)-L-alanine; SITE 11: note = alpha-methyl-L-serine; SITE 13: note = alpha-methyl-leucine; SITE 16: note = L-ornithine; SITE 17: note = Lysine is chemically mo
B18: Example 364 (peptide)
chain: Y[Aib]QGT[αMePhe(2-F)]TSD[Phe(4-CN)]SKLLDKIAQK([AEEA-γGlu-C20 diacid])AFIEYLIEGGPSSGEPPPSGS-NH2
B19: Example 34 (peptide)
chain: YXQGTFTSDFSKXLDKKAQXAFIEYLLEAGPSSGAPPPGEG
modifications: not fully specified; Aib, αMeL; acylated Lys; C-terminal amide; synthetic construct; SITE 2: note = 2-Aminoisobutyric Acid; SITE 13: note = alpha-methyl-leucine; SITE 17: note = Lysine is chemically modified through conjugation of the epsilon-amino group of the Lysine side chain with (2-[2-(2-Amino-ethoxy)-ethoxy]-acetyl)-(gamma-Glu)-CO-(CH2) 18-CO2H; SITE 20: n
B20: Example 348 (peptide)
chain: Y[Aib]QGT[αMePhe(2-F)]TSDYSILLDKQAAKEFIEYLIEGGPSSGEPPPSEG-NH2
modifications: not fully specified (residue 20)

Target: T1, human GIP receptor (human)
Test: cell-based or functional assay

Row | Binder | Relative cAMP EC50 [nM] | cAMP Rel EC50, nM (1% HSA) [nM] | cAMP Rel EC50 (1% HSA) [nM] | cAMP Rel EC50 (in the presence of 1% HSA) [nM]
1 | B1 | 0.0613 | 19.2 | – | –
2 | B2 | 0.0634 | 17.3 | – | –
3 | B3 | 0.375 | 91.8 | – | –
4 | B4 | 0.0738 | – | 28.3 | –
5 | B5 | 0.152 | 52.6 | – | –
6 | B6 | 0.0811 | 33.2 | – | –
7 | B7 | 0.106 | 33.6 | – | –
8 | B8 | 0.127 | 53.7 | – | –
9 | B9 | 0.243 | 57.5 | – | –
10 | B10 | 0.245 | 34.1 | – | –
11 | B11 | 0.077 | 42.9 | – | –
12 | B12 | 0.134 | 23.8 | – | –
13 | B13 | 0.0121 | 2.62 | – | –
14 | B14 | 0.0377 | 11.1 | – | –
15 | B15 | 0.0183 | 1.97 | – | –
16 | B16 | 0.0165 | 1.78 | – | –
17 | B17 | 0.0213 | 2.15 | – | –
18 | B18 | 0.457 | 101 | – | –
19 | B19 | 0.122 | – | – | 44.2
20 | B20 | 0.127 | 36.4 | – | –

Target: human glucagon receptor (human) (UniProt P47871)
Sequence (P47871 26-477): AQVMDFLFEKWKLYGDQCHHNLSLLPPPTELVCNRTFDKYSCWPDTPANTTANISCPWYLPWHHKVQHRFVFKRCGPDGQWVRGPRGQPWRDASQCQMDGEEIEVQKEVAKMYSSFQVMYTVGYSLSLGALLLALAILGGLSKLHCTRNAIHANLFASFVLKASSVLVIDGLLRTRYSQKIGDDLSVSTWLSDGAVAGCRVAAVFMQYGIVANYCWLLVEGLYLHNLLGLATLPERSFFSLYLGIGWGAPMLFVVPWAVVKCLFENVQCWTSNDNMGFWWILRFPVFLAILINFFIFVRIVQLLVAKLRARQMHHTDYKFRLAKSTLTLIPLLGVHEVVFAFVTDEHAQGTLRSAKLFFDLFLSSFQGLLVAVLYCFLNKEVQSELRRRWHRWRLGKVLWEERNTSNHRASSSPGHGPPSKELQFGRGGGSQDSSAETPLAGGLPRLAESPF
Test: cell-based or functional assay

Row | Binder | Relative cAMP EC50 [nM] | cAMP Rel EC50, nM (1% HSA) [nM] | cAMP Rel EC50 (1% HSA) [nM] | cAMP Rel EC50 (in the presence of 1% HSA) [nM]
21 | B1 | 4.76 | 2680 | – | –
22 | B2 | 8.88 | 3650 | – | –
23 | B3 | 13.6 | 4080 | – | –
24 | B4 | 15.6 | – | 4310 | –
25 | B5 | 5.12 | 2280 | – | –
26 | B6 | 5.87 | 3430 | – | –
27 | B7 | 10.4 | 3760 | – | –
28 | B8 | 11 | 3080 | – | –
29 | B9 | 12.1 | 2470 | – | –
30 | B10 | 16.4 | 4020 | – | –
31 | B11 | 6.21 | 1810 | – | –
32 | B12 | 7.91 | 1440 | – | –
33 | B13 | 0.481 | 111 | – | –
34 | B14 | 1.36 | 163 | – | –
35 | B15 | 4.48 | 666 | – | –
36 | B16 | 1.32 | 137 | – | –
37 | B17 | 1.45 | 176 | – | –
38 | B18 | 10.2 | 3190 | – | –
39 | B19 | 3.47 | – | – | 855
40 | B20 | 3.9 | 1250 | – | –

Target: hGLP-1R (Homo sapiens, UniProt P43220)
Sequence (P43220 24-463): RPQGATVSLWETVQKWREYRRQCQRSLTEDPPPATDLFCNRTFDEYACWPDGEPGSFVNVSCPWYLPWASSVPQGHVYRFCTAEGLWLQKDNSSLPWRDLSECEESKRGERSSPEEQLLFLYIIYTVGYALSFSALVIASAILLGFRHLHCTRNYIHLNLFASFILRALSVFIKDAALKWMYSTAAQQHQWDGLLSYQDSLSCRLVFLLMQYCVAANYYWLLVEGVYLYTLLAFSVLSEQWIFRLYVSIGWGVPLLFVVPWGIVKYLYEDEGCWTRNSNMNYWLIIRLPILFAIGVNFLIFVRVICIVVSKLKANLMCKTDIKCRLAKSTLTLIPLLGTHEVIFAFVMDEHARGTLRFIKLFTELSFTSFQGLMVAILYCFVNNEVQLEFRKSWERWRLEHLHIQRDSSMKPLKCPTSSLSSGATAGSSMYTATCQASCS
Test: cell-based or functional assay

Row | Binder | Relative cAMP EC50 [nM] | cAMP Rel EC50, nM (1% HSA) [nM] | cAMP Rel EC50 (1% HSA) [nM] | cAMP Rel EC50 (in the presence of 1% HSA) [nM]
41 | B1 | 0.599 | 206 | – | –
42 | B2 | 0.798 | 254 | – | –
43 | B3 | 1.47 | 217 | – | –
44 | B4 | 1.17 | – | 514 | –
45 | B5 | 0.555 | 218 | – | –
46 | B6 | 1.01 | 351 | – | –
47 | B7 | 0.776 | 360 | – | –
48 | B8 | 0.634 | 222 | – | –
49 | B9 | 0.679 | 272 | – | –
50 | B10 | 0.967 | 407 | – | –
51 | B11 | 0.625 | 248 | – | –
52 | B12 | 1.21 | 175 | – | –
53 | B13 | 0.242 | 37.4 | – | –
54 | B14 | 0.367 | 29.4 | – | –
55 | B15 | 0.392 | 54.5 | – | –
56 | B16 | 0.299 | 18 | – | –
57 | B17 | 0.251 | 18.8 | – | –
58 | B18 | 1.1 | 260 | – | –
59 | B19 | 1.16 | – | – | 242
60 | B20 | 0.346 | 136 | – | –
